Values joined by “and” are separate entries in the source; they are usually repeats but may differ in a detail not shown here. Identical values can stand only once.
How the values were obtained:
[1] = tested on: T1, Crosstide GRPRTSSFAEG
T1 sequence: GRPRTSSFAEG

[2] = tested on: T2, RPRAASF
T2 sequence: RPRAASF

[3] = tested on: T3, RPRAATF
T3 sequence: RPRAATF

[4] = tested on: T4, RPRTSSF
T4 sequence: RPRTSSF

[5] = tested on: T5, RPRTSTF
T5 sequence: RPRTSTF

[6] = tested on: T6, GRARTSSFA
T6 sequence: GRARTSSFA

[7] = tested on: T7, GRPRTSSF
T7 sequence: GRPRTSSF

[8] = tested on: T8, KKKNRTLSVA
T8 sequence: KKKNRTLSVA

[9] = tested on: T9, KKRNKTLSVA
T9 sequence: KKRNKTLSVA

[10] = tested on: T10, KKRNRTLSVA
T10 sequence: KKRNRTLSVA

[11] = tested on: T11, KKRNRTLTV
T11 sequence: KKRNRTLTV

[12] = tested on: T12, KPRTSSF
T12 sequence: KPRTSSF

[13] = tested on: T13, RPKTSSF
T13 sequence: RPKTSSF

[14] = tested on: T14, RPRAGSF
T14 sequence: RPRAGSF

[15] = tested on: T15, RPRASSF
T15 sequence: RPRASSF

[16] = tested on: T16, RPRGASF
T16 sequence: RPRGASF

[17] = tested on: T17, RPRGGSF
T17 sequence: RPRGGSF

[18] = tested on: T18, RPRGSSF
T18 sequence: RPRGSSF

[19] = tested on: T19, RPRNSSF
T19 sequence: RPRNSSF

[20] = tested on: T20, RPRTASF
T20 sequence: RPRTASF

[21] = tested on: T21, RPRTGSF
T21 sequence: RPRTGSF

[22] = tested on: T22, RPRTNSF
T22 sequence: RPRTNSF

[23] = tested on: T23, RPRTSSA
T23 sequence: RPRTSSA

[24] = tested on: T24, RPRTSSE
T24 sequence: RPRTSSE

[25] = tested on: T25, RPRTSSFA
T25 sequence: RPRTSSFA

[26] = tested on: T26, RPRTSSK
T26 sequence: RPRTSSK

[27] = tested on: T27, RPRTSSL
T27 sequence: RPRTSSL

[28] = tested on: T28, RPRTSSV
T28 sequence: RPRTSSV

[29] = tested on: T29, RPRTSS
T29 sequence: RPRTSS

[30] = tested on: T30, RPRTVSF
T30 sequence: RPRTVSF

[31] = tested on: T31, RPRVSSF
T31 sequence: RPRVSSF

[32] = tested on: histone H2B
[33] = tested on: myelin basic protein (MBP)

With “MAPKAP kinase-1 purified from rabbit skeletal muscle” the Km [1] was 2 µM, the Vmax [1] was 790 U/mg and the Km [2] was 20 µM. The Vmax [2] was 1020 U/mg, the Km [3] was > 500 µM and the Km [4] was 12 µM. For the same substance, the Vmax [4] was 840 U/mg, the Km [5] was > 500 µM and the Vmax [5] was > 500 U/mg.

Substance “HA-RAC-PKα immunoprecipitated from IGF-1 stimulated 293 cells” has a Km [1] of 4 µM, a V (0.1 mM): relative rate of phosphorylation at 0.1 mM peptide (relative to peptide 1) [1] of 100 and a Vmax [1] of 250 U/mg. The Km [6] was “Km of 10 µM and Vmax of 230 U/mg”, the Vmax [6] was “Km of 10 µM and Vmax of 230 U/mg” and the Km [7] was 8 µM. It also gave a V (0.1 mM): relative rate of phosphorylation at 0.1 mM peptide (relative to peptide 1) [7] of 129, a Vmax [7] of 385 U/mg and a Km [8] of 185 µM. For the same substance, the Vmax [8] was 270 U/mg, the Km [9] was > 500 µM and the Km [10] was 80 µM. The Vmax [10] was 300 U/mg, the Km [11] was 388 µM and the Vmax [11] was 330 U/mg. For the same substance, the Km [12] was > 500 µM, the V (0.1 mM): relative rate of phosphorylation at 0.1 mM peptide (relative to peptide 1) [12] was 4 and the Km [13] was > 500 µM. It also gave a V (0.1 mM): relative rate of phosphorylation at 0.1 mM peptide (relative to peptide 1) [13] of 2, a Km [2] of 25 µM and a V (0.1 mM): relative rate of phosphorylation at 0.1 mM peptide (relative to peptide 1) [2] of 77. It also gave a Vmax [2] of 215 U/mg, a Km [3] of 25 µM and a Vmax [3] of 230 U/mg. The Km [14] was 49 µM, the V (0.1 mM): relative rate of phosphorylation at 0.1 mM peptide (relative to peptide 1) [14] was 70 and the Vmax [14] was 114 U/mg. It also gave a Km [15] of 12 µM, a V (0.1 mM): relative rate of phosphorylation at 0.1 mM peptide (relative to peptide 1) [15] of 89 and a Vmax [15] of 230 U/mg. For the same substance, the Km [16] was 105 µM, the V (0.1 mM): relative rate of phosphorylation at 0.1 mM peptide (relative to peptide 1) [16] was 37 and the Vmax [16] was 160 U/mg. It also gave a Km [17] of 105 µM, a V (0.1 mM): relative rate of phosphorylation at 0.1 mM peptide (relative to peptide 1) [17] of 55 and a Vmax [17] of 345 U/mg. For the same substance, the Km [18] was 60 µM, the V (0.1 mM): relative rate of phosphorylation at 0.1 mM peptide (relative to peptide 1) [18] was 37 and the Vmax [18] was 163 U/mg. The Km [19] was > 500 µM, the V (0.1 mM): relative rate of phosphorylation at 0.1 mM peptide (relative to peptide 1) [19] was 21 and the Km [20] was 20 µM. For the same substance, the V (0.1 mM): relative rate of phosphorylation at 0.1 mM peptide (relative to peptide 1) [20] was 83, the Vmax [20] was 213 U/mg and the Km [21] was 25 µM. It also gave a V (0.1 mM): relative rate of phosphorylation at 0.1 mM peptide (relative to peptide 1) [21] of 77, a Vmax [21] of 233 U/mg and a Km [22] of 30 µM. The V (0.1 mM): relative rate of phosphorylation at 0.1 mM peptide (relative to peptide 1) [22] was 81, the Vmax [22] was 300 U/mg and the Km [23] was 250 µM. For the same substance, the V (0.1 mM): relative rate of phosphorylation at 0.1 mM peptide (relative to peptide 1) [23] was 30, the Vmax [23] was 265 U/mg and the Km [24] was > 500 µM. It also gave a V (0.1 mM): relative rate of phosphorylation at 0.1 mM peptide (relative to peptide 1) [24] of 9, a Km [25] of 8 µM and a V (0.1 mM): relative rate of phosphorylation at 0.1 mM peptide (relative to peptide 1) [25] of 109. It also gave a Vmax [25] of 305 U/mg, a Km [4] of 5 µM and a V (0.1 mM): relative rate of phosphorylation at 0.1 mM peptide (relative to peptide 1) [4] of 105. The Vmax [4] was 260 U/mg, the Km [26] was 80 µM and the V (0.1 mM): relative rate of phosphorylation at 0.1 mM peptide (relative to peptide 1) [26] was 67. For the same substance, the Vmax [26] was 308 U/mg, the Km [27] was 8 µM and the V (0.1 mM): relative rate of phosphorylation at 0.1 mM peptide (relative to peptide 1) [27] was 104. It also gave a Vmax [27] of 278 U/mg, a Km [28] of 21 µM and a V (0.1 mM): relative rate of phosphorylation at 0.1 mM peptide (relative to peptide 1) [28] of 102. For the same substance, the Vmax [28] was 300 U/mg, the Km [29] was > 500 µM and the V (0.1 mM): relative rate of phosphorylation at 0.1 mM peptide (relative to peptide 1) [29] was 2. The Km [5] was 30 µM, the V (0.1 mM): relative rate of phosphorylation at 0.1 mM peptide (relative to peptide 1) [5] was 78 and the Vmax [5] was 240 U/mg and 243 U/mg. The Km [30] was 30 µM, the V (0.1 mM): relative rate of phosphorylation at 0.1 mM peptide (relative to peptide 1) [30] was 89 and the Vmax [30] was 365 U/mg. The Km [31] was 25 µM, the V (0.1 mM): relative rate of phosphorylation at 0.1 mM peptide (relative to peptide 1) [31] was 77 and the Vmax [31] was 273 U/mg. The Km [32] was “histone H2B with a Km of 5 µM and a Vmax of 68 U/mg”, the Vmax [32] was “histone H2B with a Km of 5 µM and a Vmax of 68 U/mg” and the Km [33] was “MBP with a Km of 5 µM and a Vmax of 25 U/mg”. For the same substance, the Vmax [33] was “MBP with a Km of 5 µM and a Vmax of 25 U/mg”.

Reference: US20110275102
